Measured values as given in patent US20210070872A1 (AGENUS, published 2021).
Residue numbers refer to the chain shown, from its start.

B1: germline variant antibody 85 (H1917E02 / K1917E02) (antibody, V domains shown)
VH: QVQLVQSGAEVKKPGASVKVSCKASGYTFTEYAMYWVRQAPGQGLEWMGVIRTYSGGVTYNQKFKDRATMTVDTSISTAYMELSRLRSDDTAVYYCAKSGTVRGFAYWGQGTLVTVSS
VL: DIVMTQSPDSLAVSLGERATINCKSSQSLLNSSNQKNYLSWYHQKPGQPPKLLIYWASTRESGVPDRFSGSGSGTDFTLTISSVQAEDVAVYYCQNDYSYPYTFGQGTKLEIK
notes: IGHG1/IGKC expression vectors; measured from CHO culture supernatant; also called Antibody ID 85
B2: germline variant antibody 49 (H1916E11 / K1916E11) (antibody, V domains shown)
VH: B1 VH with A9T, A24G, E31G, G57D, K65R, D66E
VL: B1 VL with S33G, S40T, Y93H, Y100F
notes: IGHG1/IGKC expression vectors; measured from CHO culture supernatant; also called Antibody ID 49
B3: germline variant antibody 37 (H1916D07 / K1916D07) (antibody, V domains shown)
VH: B1 VH with A9T, A24G, L45M, M48I, V50L, Y54F, G57E, A68V
VL: B1 VL with S33G, S40T, H43Q, S69T, V84L, Y93H, D97E
notes: IGHG1/IGKC expression vectors; measured from CHO culture supernatant; also called Antibody ID 37
B4: germline variant antibody 35 (H1916D05 / K1916D05) (antibody, V domains shown)
VH: B1 VH with V11A, A24G, E31G, L45M, M48I, Y54F, G57D, K65R, D66G, A68V
VL: B1 VL with S33G, S40T, S69T
notes: IGHG1/IGKC expression vectors; measured from CHO culture supernatant; also called Antibody ID 35
B5: germline variant antibody 42 (H1916E01 / K1916E01) (antibody, V domains shown)
VH: B1 VH with A9T, E31D, M48I, Y54F, G57D, V58L, K65Q, A68V
VL: B1 VL with S33G, H43Q, V84L
notes: IGHG1/IGKC expression vectors; measured from CHO culture supernatant; also called Antibody ID 42
B6: germline variant antibody 94 (H1917G01 / K1917G01) (antibody, V domains shown)
VH: B1 VH with A9T, A24G, E31G, M48I, Y54F, K65R, A68V, T74K, L113F
VL: B1 VL with S33G, S40T, H43Q, S69T, Y93H
notes: IGHG1/IGKC expression vectors; measured from CHO culture supernatant; also called Antibody ID 94
B7: germline variant antibody 102 (H1917H02 / K1917H02) (antibody, V domains shown)
VH: B1 VH with A9T, E31G, M48I, T59S, K65R, A68V
VL: B1 VL with H43Q, S69T
notes: IGHG1/IGKC expression vectors; measured from CHO culture supernatant; also called Antibody ID 102
B8: germline variant antibody 91 (H1917F03 / K1917F03) (antibody, V domains shown)
VH: B1 VH with A9T, A24G, Y35H, L45M, V50L, T59S, K65Q, D66E
VL: B1 VL with S33G, H43Q, Y93H, D97E, Y100F
notes: IGHG1/IGKC expression vectors; measured from CHO culture supernatant; also called Antibody ID 91
B9: germline variant antibody 101 (H1917H01 / K1917H01) (antibody, V domains shown)
VH: B1 VH with E31D, Y35H, V50L, Y54F, T59S, K65Q, A68V, T74K
VL: B1 VL with S40T, Y93H, Y100F
notes: IGHG1/IGKC expression vectors; measured from CHO culture supernatant
B10: germline variant antibody 107 (H1917H09 / K1917H09) (antibody, V domains shown)
VH: B1 VH with A24G, E31G, G57D, T59S, K65R, A68V
VL: B1 VL with S33G, S69T
notes: as for B9
B11: germline variant antibody 96 (H1917G06 / K1917G06) (antibody, V domains shown)
VH: B1 VH with A24G, L45M, V58L, K65R, A68V
VL: B1 VL with V84L, Y93H
notes: IGHG1/IGKC expression vectors; measured from CHO culture supernatant; also called Antibody ID 96
B12: germline variant antibody 95 (H1917G05 / K1917G05) (antibody, V domains shown)
VH: B1 VH with A24G, E31D, V50L, T59S, K65R, D66G, A68V, L113F
VL: B1 VL with S33G, S40T, H43Q, L52M, Y93H, Y100F
notes: IGHG1/IGKC expression vectors; measured from CHO culture supernatant; also called Antibody ID 95
B13: germline variant antibody 105 (H1917H07 / K1917H07) (antibody, V domains shown)
VH: B1 VH with A24G, V50L, Y54F, T59S, D66G, A68V
VL: B1 VL with S33G, H43Q
notes: as for B9
B14: germline variant antibody 86 (H1917E03 / K1917E03) (antibody, V domains shown)
VH: B1 VH with A24G, L45M, K65R
VL: B1 VL with S33G, S40T
notes: IGHG1/IGKC expression vectors; measured from CHO culture supernatant; also called Antibody ID 86
B15: germline variant antibody 92 (H1917F05 / K1917F05) (antibody, V domains shown)
VH: B1 VH with A24G, V50L, Y54F, K65Q, D66G, R87Q
VL: B1 VL with S33G, S40T, L52M, D76N, Y93H
notes: IGHG1/IGKC expression vectors; measured from CHO culture supernatant; also called Antibody ID 92

Target: T1, biotinylated GITR (human, UniProt Q9Y5U5 26-161, limits assumed, biotinylated (sites not given))
T1 construct: also called GITR-bio; Biotin-GITR
T1 sequence: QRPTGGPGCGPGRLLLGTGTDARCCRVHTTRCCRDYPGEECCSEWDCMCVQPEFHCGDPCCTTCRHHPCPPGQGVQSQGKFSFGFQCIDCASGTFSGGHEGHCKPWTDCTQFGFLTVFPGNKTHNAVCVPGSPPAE
Assay: BLI (Octet), biotin-GITR on streptavidin tips, antibody supernatant
Protocol: Several hundred germlined antibodies were selected based on binding kinetics as determined by Octet measurements (Octet RED 96 system; ForteBio™ Inc., Menlo Park, Calif.). The experimental procedure was configured according to the instruction manual of the instrument. Biotin-GITR was bound to Streptavidin biosensor (SA) and PBS (pH 7.4) was used as a blank control. Briefly, the interaction analyses were conducted at 30° C. in running buffer (PBS, 0.05% Tween, pH7.4). Sensor tips were pre-wet for 10 minutes in running buffer immediately prior to use, and the micro plates used in the Octet were filled with 200 μl of sample or buffer per well and agitated at 800 rpm. For the experiments, commercially available precoated SA tips were used. Biotinylated GITR was loaded onto the ForteBio SA fibers in PBS pH7.4 for 10 minutes and washed for 4 minutes. For the association phase, the ligand-coated SA tips were immersed for 5 minutes in cell culture supernatant that was diluted 1:10 in running buffer prior to the measurement. Dissociation of the antibody-antigen complex was measured in wells containing the Octet buffer alone for 5 minutes. After each run, the tips were regenerated with Glycine (10 mM, pH 2.0). Affinity, Kₒₙ and Koff were determined with Octet evaluation software v6.3 using a 1:1 binding model with local full fitting.

Binder	Kd [nM]	koff [s⁻¹]	kon [M⁻¹ s⁻¹]
B1	1.28	0.00037	289000
B2	2.09	0.000707	338000
B3	0.0317	0.000242	7.64e+06
B4	0.187	0.00024	1.29e+06
B5	0.377	0.000157	417000
B6	1.18	0.00044	372000
B7	1.97	0.000632	321000
B8	3.07	0.00159	520000
B9	0.354	0.000332	936000
B10	2.21	0.000657	298000
B11	1.09	0.000373	344000
B12	2.21	0.000672	305000
B13	1.38	0.000486	351000
B14	0.75	0.000432	577000
B15	1.01	0.000361	357000
